The values that follow come from US20230258640.

This data set has as its target T1, TCPP-labelled peptide cleavage sequence for MMP-1 (GAGVPMS-MRGGAG) tethered to carboxygraphene-polyethylenimine.
T1 chain: GAGVPMSMRGGAG

B1: Matrix-Metalloproteinase-1 (protein)
chain: FVLTEGNPRWEQTHLTYRIENYTPDLPRADVDHAIEKAFQLWSNVTPLTFTKVSEGQADIMISFVRGDHRDNSPFDGPGGNLAHAFQPGPGIGGDAHFDEDERWTNNFREYNLHRVAAHELGHSLGLSHSTDIGALMYPSYTFSGDVQLAQDDIDGIQAIYGRSQNPVQPIGPQTPKACDSKLTFDAITTIRGEVMFFKDRFYMRTNPFYPEVELNFISVFWPQLPNGLEAAYEFADRDEVRFFKGNKYWAVQGQNVLHGYPKDIYSSFGFPRTVKHIDAALSEENTGKTYFFVANKYWRYDEYKRSMDPGYPKMIAHDFPGIGHKVDAVFMKDGFFYFFHGTRQYKFDPKTKRILTLQKANSWFNCRKN
In the case of B1, the “estimated limit of detection (LOD)” value is given as “femtomolar protease activities can be detected” and the “fluorescence signal of released TCPP after 60 min incubation at 37 C” value was “the intensity of the detected signal is proportional to concentration of enzyme”.
